Biological target: receptor binding domain (RBD) of the SARS-CoV-2 spike protein (residues 319-541) (SARS-CoV-2) (UniProt P0DTC2)
Assay: SPR

With “wild-type sACE2-Fc (soluble ACE2, residues 1-615, fused to human IgG Fc) (from UniProt Q9BYF1 18-615) (Fc fusion)” the Kd was 23.2 nM.

From paper PMC11432317
